Assay type in all cases: functional, cell membranes
For data set [1], the target named is Multidrug resistance protein 1a (Rattus norvegicus) (UniProt Q6PSM0). As to the kind of experiment: (§1) TP_TRANSPORTER: uptake in rat canalicular membrane vesicle.
For data set [2], the system named is C=C[C@H]1CN2CC[C@H]1C[C@@H]2[C@@H](O)c1ccnc2ccc(OC)cc12. The description is as §1.
Data set [3] deals with C=CC1C[N+]2(CCCCC)CCC1CC2C(O)c1ccnc2ccc(OC)cc12. As to the kind of experiment: TP_TRANSPORTER: uptake in rat canalicular plasma membrane vesicles. To be noted: Canalicular plasma membrane vesicle.

For `CCC1C[N+]2(CCCC3(C)N=N3)C3CC45c6ccccc6N(C)C4C2CC1C3C5O` (stereo not drawn), the Activity result in data set [1] was “substrate [+]”.

On to “Multidrug resistance protein 1a (Rattus norvegicus), Q6PSM0”, for which the Km in data set [2] amounted to 5 µM; in data set [3], 0.4 µM.

The values are drawn from ChEMBL document CHEMBL2074526, “ATP-dependent transport of amphiphilic cations across the hepatocyte canalicular membrane mediated by mdr1 P-glycoprotein” (FEBS Lett, 1994).
